Reference: US20220296736A1, “ADMINISTRATION OF THERAPEUTIC AGENTS TO BRAIN AND OTHER CELLS AND TISSUE” (priority 2019, published 2022)

Assays:
[1] = Safety of IA mannitol-induced BBBO in the cortex (MRI and GFAP/IBA1 histology); type: in vivo, SCID mice
Description: Once cortical perfusion has been confirmed, 25% mannitol mixed with Gd (50:1) was infused until enhancement indicating BBB breach has been achieved (up to three bolus injections 1-2 min each; interval between infusions is 30 s). For detailed assessment of the BBB status, high resolution T1-weighted scan was collected after mannitol infusion. Three and seven days after OBBBO, the safety of the procedure was evaluated by MRI and then animals were sacrificed for further histological assessment.
For histological evaluation on the safety of OBBBO in the cortex, 7 days after surgery, animals (n=4) were anesthetized and perfused transcardially with 5% sucrose, followed by 4% paraformaldehyde (PFA). The brains were rapidly removed and post-fixed overnight in 4% PFA at 4° C. The brains were cryopreserved in 30% sucrose and 30-μm thick coronal sections were cryosectioned. Immunohistochemistry for anti-GFAP (1:250, Dako) and anti-Iba1 (1:250, Wako) was performed to assess the neuroinflammation. The secondary antibody was goat anti-rabbit (Alexa Fluor-488, 1:200, Molecular Probes). […] All the fluorescent images were acquired using an inverted microscope (Zeiss, Axio Observer Z1).
Data is expressed as mean±SD unless otherwise specified. Quantitation of immunohistochemistry was based on relative fluorescence using Image J and analyzed using a paired t-test. The ratio of ipsi-/contralateral was analyzed using an unpaired t-test. The MRI analysis of the change in area of the Gd perfusion territory and Gd-enhancement for each mouse was calculated using a custom-written script in MATLAB and analyzed using a paired t-test. A p-value less than 0.05 was considered significant.

[2] = Intravital 2PM visualization of cortical BBBO and drug extravasation; type: in vivo, SCID mice; details: IA infusion with 25% mannitol; 7 ROIs
Description: Before microscopy, isoflurane anesthetized mice (n=5) with cranial window and with arterial access as described above were stabilized in a custom-made frame immobilizing their head. The mice were positioned under an epi-fluorescent microscope and a 10× magnification objective was used for capturing images at frequency of 1-2 Hz. Saline solution of 0.001 mM rhodamine (0.58 kDa) was injected using a syringe infusion pump at the rate of 0.15 ml/min over 1 min via the ICA microcatheter to visualize trans-catheter perfusion. When the cortex was not perfused, the cCCA was closed temporarily for 20 s by engaging the weights.
For 2PM to visualize OBBBO and drug penetration, mice were placed under a multiphoton microscope (FV1000MPE, Olympus, Tokyo, Japan). A 10× objective (UPlanSApo, 0.40 NA and 3.1 mm working distance) was centered over the cranial window and used to collect time series images of 800×800 pixels (1.59 μm/pixel; 2 μs/pixel; 100 frames) at an estimated depth of 150 um below the cortical surface. Rhodamine (0.002 mM) mixed with BV-FITC (0.01 mM) was injected prior to OBBBO to collect baseline data and optimize cortical perfusion (temporary cCCA closure). Then, 25% mannitol mixed with rhodamine and BV-FITC was delivered at the rate of 0.15 ml/min for 4 mins in total. […]

[3] = Histological assessment of BV biodistribution and extravasation; type: in vivo, SCID mice; details: for localisation in brain tissue: one hour after delivery
Description: For histological evaluation on the safety of OBBBO in the cortex, 7 days after surgery, animals (n=4) were anesthetized and perfused transcardially with 5% sucrose, followed by 4% paraformaldehyde (PFA). The brains were rapidly removed and post-fixed overnight in 4% PFA at 4° C. The brains were cryopreserved in 30% sucrose and 30-μm thick coronal sections were cryosectioned. Immunohistochemistry for anti-GFAP (1:250, Dako) and anti-Iba1 (1:250, Wako) was performed to assess the neuroinflammation. The secondary antibody was goat anti-rabbit (Alexa Fluor-488, 1:200, Molecular Probes). For detecting the biodistribution of infused BV, the mice with OBBBO (n=4) and without OBBBO (n=3) were sacrificed 1 hour after administration. The brains were cryosectioned at 30 μm and the slices were stained with goat anti-human secondary antibody (Alexa Fluor-488, 1:200, Invitrogen). All the fluorescent images were acquired using an inverted microscope (Zeiss, Axio Observer Z1).
A p-value less than 0.05 was considered significant.

[4] = mouse, in vivo, iv; cited from earlier work
[5] = mouse, in vivo
Description: In the first step, we conjugated BV with DFO chelator and characterized resulting conjugate by means of its molecular weight and binding to vascular endothelial growth factor (VEGF).
(§1) All animal procedures were carried out under protocols approved by the Johns Hopkins Animal Care and Use Committee. Under general anesthesia with 1-2% isoflurane a catheter was placed in internal carotid artery of C3HeB/FeJ (Jackson, stock No. 000658), male, 6-8 weeks old mice, as we described previously (22) and animal was transferred to the PET-CT scanner. […] A CT scan (512 projections) was performed after dynamic scan for anatomical co-registration. PET/CT imaging was repeated around 24 h post infusion. PET data were reconstructed using the two-dimensional ordered subsets-expectation maximization algorithm (2D-OSEM) and corrected for dead time and radioactive decay. Presented whole body images were generated using Amira® (FEI, Hillsboro, Oreg.) and dynamic scans (brain and heart radioactivity accumulation) and radioactivity distribution in different brain regions were analyzed with PMOD 4.3 (PMOD Technologies LLC, Zurich, Switzerland).

[6] = human, in vivo, iv; cited from earlier work
[7] = mouse, in vivo; remark: listed apart in the source
Description: In the first step, we conjugated BV with DFO chelator and characterized resulting conjugate by means of its molecular weight and binding to vascular endothelial growth factor (VEGF). […] Next day PET-CT imaging was repeated and animals were sacrificed to perform ex vivo biodistribution of ^89ZrBVDFO.
as §1

recombinant human VEGF-A = assay: Functional binding assay of BV and BVDFO to VEGF (Bevacizumab ELISA); details: unmodified BV versus BVDFO conjugate
Chain of recombinant human VEGF-A (P15692 207-320 limits assumed): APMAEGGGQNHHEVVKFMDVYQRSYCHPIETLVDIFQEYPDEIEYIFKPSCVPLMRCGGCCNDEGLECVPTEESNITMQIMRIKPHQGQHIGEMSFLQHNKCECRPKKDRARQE
Description: The ELISA assay devoted for assessment of bevacizumab concentration has been used to assess the binding capacity of unmodified BV and BVDFO conjugate. The assay was carried out using Bevacizumab ELISA (ImmunoGuide, Eagle Bioscience) according to the manufacturer protocol. Briefly, 100 μg/mL, 50 μg/mL, 25 μg/mL of BV and BVDFO, as well as the provided standards were diluted 1:1000, and pipetted in 6 repetitions into the wells of the microtiter plate coated with recombinant human VEGF-A. Plate was incubated for 60 min in the room temperature and washed 3× with buffer. Next, horseradish peroxidase (HRP) conjugated anti-human IgG monoclonal antibody was added to each well, and incubated in room temperature for 30 min. Plate was washed 3× with the buffer and ready-to-use TMB substrate solution was added to each well. After 15 min incubation in dark, stop solution was added to each well and the color change from blue to yellow was observed. The absorbance at 450 nm was read using Victor 3 plate reader (Perkin Elmer) within 10 min after addition of the stop solution and expressed as optical density (OD).

Q: What does the source list for OC[C@@H](O)[C@@H](O)[C@H](O)[C@H](O)CO [mannitol]?
A: brain damage after cortical BBBO induction (MRI and histology) ([1]; 3 and 7 days after BBBO): did not cause brain damage; astrocytic or microglial activation in the BBBO region (GFAP and IBA-1 staining) ([1]; 7 days post BBBO, ipsilateral versus contralateral): no evidence of astrocytic or microglial activation; brain damage after excessive exposure (T2 hyperintensity) ([1]; continuous 4 min-infusion): led to brain damage

Q: For rhodamine, which “extravasation upon BBBO compared to BV-FITC (2PM fluorescence intensity)” value [2] is on record?
A: earlier onset and higher intensity of extravasation

Q: Which “localisation in brain tissue” value ([3]; IA delivery with OBBBO) does the source give for “BV: AVASTIN (BV, Roche), bevacizumab, antibody binding VEGF” here?
A: both blood vessels and parenchyma

Q: And the “localisation in brain tissue” value ([3]; IA delivery with intact BBB (BBBI))?
A: localized within the blood vessels

Q: And the “uptake in ipsilateral vs. contralateral hemisphere (fluorescence intensity)” value ([3]; both groups (BBBI and OBBBO))?
A: significantly higher uptake

Q: Which “accumulation in the brain and tumors” value [4] does the source give for “89ZrBVDFO: bevacizumab conjugated with on average 3 molecules of DFO chelator and radiolabeled with 89Zr” here?
A: no accumulation

Q: What about the “clearance from the brain compared with 89ZrNB(DFO)2” value [5] of the same compound?
A: slower

Q: What about the “uptake in diffuse intrinsic pontine glioma” value [6] of the same compound?
A: some uptake in five out of seven patients

Q: What about the “radioactivity accumulation in contralateral hemisphere” value [7] of the same compound?
A: no radioactivity accumulation

Q: What about the “signal in the contralateral hemisphere” value [7] of the same compound?
A: negligible signal

Q: What about the “radioactivity in the entire brain” value ([7]; iv) of the same compound?
A: 2.91 % ID/cc

Q: With “BVDFO: bevacizumab conjugated with p-SCN-Bn-DFO chelator” as the compound, how does the “binding to VEGF” value (recombinant human VEGF-A) read?
A: did not affect its targeting properties
